System: CHO-T cells
Assay: Phosphorylation (mobility shift) of truncated IRS-1 PH/PTB constructs in CHO-T cells
Type: cell-based, Chinese Hamster
Conditions: for effect of inhibitor pretreatment on the mobility shift of PH/PTB-L induced by chronic insulin: 30 min inhibitor, then 100 nM insulin 30 min
Protocol: FIGS. 7a-c show In vivo phosphorylation of PH/PTB-L in response to insulin. CHO-T cells were transiently transfected with pcDNA3-Myc-PH/PTB (1-1290 nt) or with an insert-free plasmid (control). Twenty-four hours post-transfection, the cells were deprived of serum for 16 h and were then treated with insulin for the indicated time periods. Cell extracts (100 μg) were resolved on 10% SDS-PAGE and immunoblotted with anti-pY or anti-Myc antibodies (FIG. 7a). In parallel, samples (100 μg, 40 μl) were incubated with 3 units (U) of calf intestine phosphatase (CIP) at 37° C. for 1 h. The samples were resolved on 10% SDS-PAGE and immunoblotted with anti-Myc antibodies (FIG. 7b). The results are of a representative of two experiments. FIG. 7c—CHO^PH/PTB-L cells were starved in serum-free F12 medium for 16 h. The cells were treated for 30 min with the indicated inhibitors prior to being treated with 100 nM insulin for 30 min. Cell extracts were prepared, samples were resolved on 10% SDS-PAGE and were immunoblotted with anti-Myc antibodies. Results are of a representative of three experiments.
FIGS. 8a-b show the effects of insulin on Serine phosphorylation of Myc-PH/PTB-L^7A CHO-T cells were transiently transfected with constructs encoding Myc-PH/PTB-L (1-1290 nt), either wild type (WT) or the 7A mutant (FIG. 8a). Alternatively, the cells were transfected or with the constructs encoding Myc-PH/PTB-L (1-1290 nt; 1-430 aa) or Myc-PH/PTB-S (1-1095 nt; 1-365 aa, FIG. 8b). Following 24 hours in culture, the cells were incubated in serum-free F12 medium for 16 ch prior to being treated with insulin for the indicated times. Cell extracts were resolved on 10% SDS-PAGE and immunoblotted with anti-Myc antibodies. Results are of a representative of three experiments.
FIGS. 9a-b show the effects of insulin and calyculin A on Ser phosphorylation of PH/PTB-L mutants. FIG. 9a—CHO-T cells were transiently transfected with constructs expressing either Myc-PH/PTB^WT or the following PH/PTB mutants: S336A, S407A, S408A, S407/8A and S3A (S336/407/408A). Following 24 hours the cells were deprived of serum for 16 h, and were treated with insulin for the indicated times. Cell extracts were resolved on 10% SDS-PAGE and immunoblotted with anti-Myc antibodies. The results are of a representative of two-three experiments. FIG. 9b—CHO-T cells were transiently transfected with pcDNA3-myc-PH/PTB^WT or pcDNA3-myc-PH/PTB^S408A. Following 24 hours the cells were starved for 16 h and were then treated either with 100 nM insulin for 30 min or with 25 nM calyculin A for 60 min. Cell extracts were resolved on 10% SDS-PAGE and were immunoblotted with anti-Myc antibodies. Results are of a representative of two experiments.
Plasmids construction—i. Myc-tagged-IRS-1 The cDNA, encoding for the mouse IRS-1 in the pCNA-3 expression plasmid (35) was digested with Hind III and BspE-1. This deleted a 9 by fragment from the 5′-IRS-1 cDNA that was replaced by a double stranded synthetic oligonucleotide encoding the Myc tag and the missing amino-acids of IRS-1 (bold) […] (SEQ ID NO. 9). ii. Myc-tagged truncated IRS-1 (aa 1-430, PH/PTB-L) Myc-tagged mouse IRS-1 cDNA (N-terminus, 1-1290 nt), encoding for the first 430 aa of IRS-1, was PCR-amplified with the following primers. 5′-CAGGATCCGCATATGGAACAAAAGCTC-3′ (sense) (SEQ ID NO. 10); 5′-GAGAATTCATCAGGGACTAGAACCATA-3′ (anti-sense) (SEQ ID NO. 11), using as a template the pcDNA3-Myc-IRS-1 plasmid. The PCR product was ligated into a pGEM-T. The insert was excised from pGEM-T with BamH I and EcoR I (italic), and then was ligated into pcDNA3 at the same restriction sites to generate pcDNA3-Myc-IRS-1^PH/PTB-L. iii. Myc-tagged truncated IRS-1 (aa 1-365, PH/PTB-S) Myc-tagged mouse IRS-1 cDNA (N-terminus, 1-1095 nt), encoding for the first 365 aa of IRS-1, was PCR-amplified with the following primers: 5′ […]-3′ (sense) (SEQ ID NO. 12); 5′ […] 3′ (anti sense) (SEQ ID NO. 13) using as a template the pcDNA3-Myc-IRS-1. […]

Row | Molecule | mobility shift following 30 min insulin treatment (CHO-T cells) | also measured
1 | COc1cccc(-c2cc(=O)c3ccccc3o2)c1N [PD98059] |  | effect of inhibitor pretreatment on the mobility shift of PH/PTB-L induced by chronic insulin: ineffective
2 | C[S+]([O-])c1ccc(-c2nc(-c3ccncc3)c(-c3ccc(F)cc3)[nH]2)cc1 (stereo not shown) [SB203580] |  | effect of inhibitor pretreatment on the mobility shift of PH/PTB-L induced by chronic insulin: ineffective
3 | PH/PTB-S: Myc-tagged truncated mouse IRS-1 (aa 1-365), lacks S407 and S408 (protein, UniProt P35569 1-365, looked up, fragment, Myc tag, Myc-tagged truncated mouse IRS-1 (aa 1-365), lacks S407 and S408) MASPPDTDGFSDVRKVGYLRKPKSMHKRFFVLRAASEAGGPARLEYYENEKKWRHKSSAPKRSIPLESCFNINKRADSKNKHLVALYTRDEHFAIAADSEAEQDSWYQALLQLHNRAKAHHDGAGGGCGGSCSGSSGVGEAGEDLSYDTGPGPAFKEVWQVILKPKGLGQTKNLIGIYRLCLTSKTISFVKLNSEAAAVVLQLMNIRRCGHSENFFFIEVGRSAVTGPGEFWMQVDDSVVAQNMHETILEAMRAMSDEFRPRSKSQSSSSCSNPISVPLRRHHLNNPPPSQVGLTRRSRTESITATSPASMVGGKPGSFRVRASSDGEGTMSRPASVDGSPVSPSTNRTHAHRHRGSSRLHPPLN |  | mobility shift (Ser phosphorylation) following prolonged insulin treatment (CHO-T cells, prolonged insulin): no decrease in its mobility
4 | PH/PTB-L^S336A: PH/PTB-L with Ser336 mutated to Ala (protein, UniProt P35569 1-430, looked up, variant S336A, Myc tag, PH/PTB-L with Ser336 mutated to Ala) MASPPDTDGFSDVRKVGYLRKPKSMHKRFFVLRAASEAGGPARLEYYENEKKWRHKSSAPKRSIPLESCFNINKRADSKNKHLVALYTRDEHFAIAADSEAEQDSWYQALLQLHNRAKAHHDGAGGGCGGSCSGSSGVGEAGEDLSYDTGPGPAFKEVWQVILKPKGLGQTKNLIGIYRLCLTSKTISFVKLNSEAAAVVLQLMNIRRCGHSENFFFIEVGRSAVTGPGEFWMQVDDSVVAQNMHETILEAMRAMSDEFRPRSKSQSSSSCSNPISVPLRRHHLNNPPPSQVGLTRRSRTESITATSPASMVGGKPGSFRVRASSDGEGTMSRPAAVDGSPVSPSTNRTHAHRHRGSSRLHPPLNHSRSIPMPSSRCSPSATSPVSLSSSSTSGHGSTSDCLFPRRSSASVSGSPSDGGFISSDEYGSSP | identical mobility-shifts as PH/PTB-L^WT | 
5 | PH/PTB-L^S408A: PH/PTB-L with Ser408 mutated to Ala (protein, UniProt P35569 1-430, looked up, variant S408A, Myc tag, PH/PTB-L with Ser408 mutated to Ala) MASPPDTDGFSDVRKVGYLRKPKSMHKRFFVLRAASEAGGPARLEYYENEKKWRHKSSAPKRSIPLESCFNINKRADSKNKHLVALYTRDEHFAIAADSEAEQDSWYQALLQLHNRAKAHHDGAGGGCGGSCSGSSGVGEAGEDLSYDTGPGPAFKEVWQVILKPKGLGQTKNLIGIYRLCLTSKTISFVKLNSEAAAVVLQLMNIRRCGHSENFFFIEVGRSAVTGPGEFWMQVDDSVVAQNMHETILEAMRAMSDEFRPRSKSQSSSSCSNPISVPLRRHHLNNPPPSQVGLTRRSRTESITATSPASMVGGKPGSFRVRASSDGEGTMSRPASVDGSPVSPSTNRTHAHRHRGSSRLHPPLNHSRSIPMPSSRCSPSATSPVSLSSSSTSGHGSTSDCLFPRRSAASVSGSPSDGGFISSDEYGSSP | abolished the mobility shift | 
6 | PH/PTB-L^S407A: PH/PTB-L with Ser407 mutated to Ala (protein, UniProt P35569 1-430, looked up, variant S407A, Myc tag, PH/PTB-L with Ser407 mutated to Ala) MASPPDTDGFSDVRKVGYLRKPKSMHKRFFVLRAASEAGGPARLEYYENEKKWRHKSSAPKRSIPLESCFNINKRADSKNKHLVALYTRDEHFAIAADSEAEQDSWYQALLQLHNRAKAHHDGAGGGCGGSCSGSSGVGEAGEDLSYDTGPGPAFKEVWQVILKPKGLGQTKNLIGIYRLCLTSKTISFVKLNSEAAAVVLQLMNIRRCGHSENFFFIEVGRSAVTGPGEFWMQVDDSVVAQNMHETILEAMRAMSDEFRPRSKSQSSSSCSNPISVPLRRHHLNNPPPSQVGLTRRSRTESITATSPASMVGGKPGSFRVRASSDGEGTMSRPASVDGSPVSPSTNRTHAHRHRGSSRLHPPLNHSRSIPMPSSRCSPSATSPVSLSSSSTSGHGSTSDCLFPRRASASVSGSPSDGGFISSDEYGSSP | identical mobility-shifts as PH/PTB-L^WT | 
7 | PH/PTB-L^407/S408A: PH/PTB-L with Ser407 and Ser408 mutated to Ala (protein, UniProt P35569 1-430, looked up, variant S407A S408A, Myc tag, PH/PTB-L with Ser407 and Ser408 mutated to Ala) MASPPDTDGFSDVRKVGYLRKPKSMHKRFFVLRAASEAGGPARLEYYENEKKWRHKSSAPKRSIPLESCFNINKRADSKNKHLVALYTRDEHFAIAADSEAEQDSWYQALLQLHNRAKAHHDGAGGGCGGSCSGSSGVGEAGEDLSYDTGPGPAFKEVWQVILKPKGLGQTKNLIGIYRLCLTSKTISFVKLNSEAAAVVLQLMNIRRCGHSENFFFIEVGRSAVTGPGEFWMQVDDSVVAQNMHETILEAMRAMSDEFRPRSKSQSSSSCSNPISVPLRRHHLNNPPPSQVGLTRRSRTESITATSPASMVGGKPGSFRVRASSDGEGTMSRPASVDGSPVSPSTNRTHAHRHRGSSRLHPPLNHSRSIPMPSSRCSPSATSPVSLSSSSTSGHGSTSDCLFPRRAAASVSGSPSDGGFISSDEYGSSP | abolished the mobility shift | 

Reference: patent US20110104167A1, “Compositions and Methods for Diagnosing and Treating Insulin Resistance” (YEDA RESEARCH AND DEVELOPMENT CO. LTD., priority 2004, published 2011)
